# Data published in patent US20260274985A1 (MYTHIC THERAPEUTICS, published 2026).
# Changes are numbered by the printed parent chain.
# T1: Human TROP2 Protein, His Tag (Acro Biosystems) (human, UniProt P09758 27-274)
# T1 construct: not shown: His tag
# T1 sequence (looked up): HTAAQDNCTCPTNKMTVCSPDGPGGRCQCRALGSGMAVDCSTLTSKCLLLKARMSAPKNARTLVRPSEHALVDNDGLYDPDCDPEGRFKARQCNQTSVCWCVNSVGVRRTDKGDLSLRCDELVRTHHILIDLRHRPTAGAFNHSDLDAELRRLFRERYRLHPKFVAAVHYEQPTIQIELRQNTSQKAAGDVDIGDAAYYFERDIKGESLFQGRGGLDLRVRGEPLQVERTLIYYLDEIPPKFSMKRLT
# T2: Human TROP2 Protein, His Tag (Acro Biosystems) (human, UniProt P09758 27-274)
# T2 construct: not shown: His tag
# T2 sequence (looked up): T1 sequence (looked up)
# T3: TROP2 on TROP2-positive NCI-H1975 cells (human, UniProt P09758 27-323)
# T3 sequence: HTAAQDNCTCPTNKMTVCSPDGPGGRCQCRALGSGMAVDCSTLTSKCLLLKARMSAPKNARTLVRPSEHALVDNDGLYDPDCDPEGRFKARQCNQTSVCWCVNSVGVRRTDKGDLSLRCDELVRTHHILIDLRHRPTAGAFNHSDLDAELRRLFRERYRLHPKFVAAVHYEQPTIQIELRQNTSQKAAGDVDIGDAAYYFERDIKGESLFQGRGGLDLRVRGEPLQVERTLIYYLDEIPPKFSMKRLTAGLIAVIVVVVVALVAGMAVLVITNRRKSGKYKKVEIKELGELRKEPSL
# T4: Human TROP2 Protein, His Tag (Acro Biosystems) (human, UniProt P09758 27-274)
# T4 construct: also called TACSTD2; not shown: His tag
# T4 sequence (looked up): T1 sequence (looked up)
# T5: Human TROP2 Protein, His Tag (Acro Biosystems) (human, UniProt P09758 27-274)
# T5 construct: Soluble analyte of the Octet assay; also called TACSTD2; not shown: His tag
# T5 sequence (looked up): T1 sequence (looked up)
# B1: MYT12392 (antibody, V domains shown)
# VH: QVQLVQSGAEVKKPGASVKVSCKASGYTFTTAGMQWVRQAPGQGLEWMGWINTHSGVPKYAEDFKGRVTISADTSTSTAYLQLSSLKSEDTAVYYCARSGFGSSYWYFDVWGQGTLVTVSS
# VL: DIQMTQSPSSLSASVGDRVTITCKASQDVSTAVAWYQQKPGKAPKLLIYSHHYRYTGVPSRFSGSGSGTDFTLTISSLQPEDFAVYYCQQHYITPLTFGQGTKLEIK
# notes: datopotamab VL 51, 52 substituted
# B2: MYT12398 (antibody, V domains shown)
# VH: B1 VH
# VL: B1 VL with D28H
# notes: datopotamab VL 28, 51, 52 substituted
# B3: MYT12404 (antibody, V domains shown)
# VH: B1 VH
# VL: B1 VL with Q89H
# notes: datopotamab VL 51, 52, 89 substituted
# B4: MYT12393 (antibody, V domains shown)
# VH: B1 VH
# VL: B1 VL with H52S, Q89H
# notes: datopotamab VL 51, 89 substituted
# B5: MYT13295 (antibody, V domains shown)
# VH: QVQLQESGPGLVKPSETLSLTCTVSGGSISSYGVHWIRQPPGKGLEWIGVIWTSGVTDYNSALMGRVTISVDTSKNQFSLKLSSVTAADTAVYYCARDGDYDRYTHDYWGQGTLVTVSS
# VL: DIVMTQSPDSLAVSLGERATINCRASKSVSTSGYSYMHWYQQKPGQPPKLLIYLASNLESGVPDRFSGSGSGTDFTLTISSLQAEDVAVYYCQASRELPYTFGQGTKLEIK
# notes: Full-length IgG from Expi293 supernatant; also called hu7E6SVG heavy chain and light chain pairing variant
# B6: MYT13315 (antibody, V domains shown)
# VH: B5 VH
# VL: B5 VL with E59H, A94H, T101H
# notes: as for B5
# B7: MYT13310 (antibody, V domains shown)
# VH: B5 VH
# VL: B5 VL with E59H
# notes: as for B5
# B8: MYT13305 (antibody, V domains shown)
# VH: B5 VH
# VL: B5 VL with A94H, T101H
# notes: as for B5
# B9: 166-DXd (antibody, IgG1, V domains shown)
# VH: QVQLQQSGSELKKPGASVKVSCKASGYTFTNYGMNWVKQAPGQGLKWMGWINTYTGEPTYTHDFKGRFAFSLDTSVSTAYLQISSLKADDTAVYFCARGGFGSSYWYFDVWGQGSLVTVSS
# VL: B1 VL with M4L, T20S, S30H, T31I, H52S, S60D, I93H, Q100A, L104V
# modifications: maleimide based GGFG-DXd conjugated to hinge cysteines, average DAR of about 4
# B10: 165-DXd (antibody, IgG1, V domains shown)
# VH: B9 VH with H62D
# VL: B1 VL with M4L, T20S, T31I, H51A, H52S, S60D, Q100A, L104V
# modifications: maleimide based GGFG-DXd conjugated to hinge cysteines, average DAR of about 4
# B11: 168-DXd (antibody, IgG1, V domains shown)
# VH: B9 VH with H62D, F64H
# VL: B1 VL with M4L, T20S, S30H, T31I, H52S, S60D, I93H, Q100A, L104V
# modifications: maleimide based GGFG-DXd conjugated to hinge cysteines, average DAR of about 4
# B12: 167-DXd (antibody, IgG1, V domains shown)
# VH: B9 VH with H62D, D63H
# VL: B1 VL with M4L, T20S, S30H, T31I, V33H, H51A, H52S, S60D, Q100A, L104V
# modifications: maleimide based GGFG-DXd conjugated to hinge cysteines, average DAR of about 4
# B13: MYT13254 (antibody, V domains shown)
# VH: B9 VH with H62D, K65H
# VL: B1 VL with M4L, T20S, T31I, H51A, S60D, I93H, Q100A, L104V
# notes: Sacituzumab HC-LC pairing variant
# B14: MYT13253 (antibody, V domains shown)
# VH: B9 VH with H62D, F64H
# VL: B1 VL with M4L, T20S, T31I, H51A, S60D, I93H, Q100A, L104V
# notes: as for B13
# B15: MYT13255 (antibody, V domains shown)
# VH: B9 VH with H62D, G66H
# VL: B1 VL with M4L, T20S, T31I, H51A, S60D, I93H, Q100A, L104V
# notes: as for B13
# B16: MYT13252 (antibody, V domains shown)
# VH: B9 VH with H62D, D63H
# VL: B1 VL with M4L, T20S, T31I, H51A, S60D, I93H, Q100A, L104V
# notes: as for B13
# B17: MYT13187 (antibody, V domains shown)
# VH: B9 VH
# VL: B1 VL with M4L, T20S, T31I, H51A, S60D, Q100A, L104V
# notes: Sacituzumab HC-LC pairing variant; IgG
# B18: MYT13311 (antibody, V domains shown)
# VH: B5 VH with I51H, H106M
# VL: B5 VL with E59H, A94H, T101H
# notes: as for B5
# B19: MYT13306 (antibody, V domains shown)
# VH: B5 VH with I51H, H106M
# VL: B5 VL with E59H
# notes: as for B5
# B20: MYT13307 (antibody, V domains shown)
# VH: B5 VH with V56H, H106M
# VL: B5 VL with E59H
# notes: as for B5
# B21: MYT13443 (antibody, V domains shown)
# VH: B5 VH with I51H, H106M
# VL: B5 VL with E59H, A94H, T101H
# notes: as for B5
# B22: MYT13312 (antibody, V domains shown)
# VH: B5 VH with V56H, H106M
# VL: B5 VL with E59H, A94H, T101H
# notes: as for B5
# B23: MYT13275 (antibody, V domains shown)
# VH: B1 VH with S104H
# VL: B1 VL with H51A, H52S, I93H
# notes: Full-length IgG from Expi293 supernatant; also called datopotamab heavy chain and light chain pairing variant
# B24: MYT13274 (antibody, V domains shown)
# VH: B1 VH with F101H
# VL: B1 VL with H51A, H52S, I93H
# notes: as for B23
# Target: T1, Human TROP2 Protein, His Tag (Acro …)
# Test: BLI (Octet)
row,binding result,Binder
1,binds,B1
2,binds,B2
3,binds,B3
4,binds,B4

# Target: T2, Human TROP2 Protein, His Tag (Acro …)
# Test: BLI (Octet)
row,binding result,Binder
1,no binding (tested: 50 nM),B5
2,no binding (tested: 50 nM),B6
3,no binding (tested: 50 nM),B7
4,no binding (tested: 50 nM),B8

# Target: T3, TROP2 on TROP2-positive NCI-H1975 cells
# Test: cell-based or functional assay
row,Binder,% efficiency @ 100 nM ADC (cytotoxicity in NCI-H1975 cells)
1,B9,9.57%
2,B10,1.47%
3,B11,7.32%
4,B12,4.86%

# Target: T4, Human TROP2 Protein, His Tag (Acro …)
# Test: BLI (Octet) [2/2]
row,binding result,Binder
1,binds,B13
2,binds,B14
3,binds,B15
4,binds,B16

# Target: T5, Human TROP2 Protein, His Tag (Acro …)
# Test: BLI (Octet), IgG on anti-human Fc sensor, soluble TROP2; grade 2 = No change vs parent
# Method: (§1) After allowing for four days of protein expression, cell culture supernatants were collected, quantified by SDS-PAGE analysis (DNS), and the pH dependence of the variant was evaluated using biolayer interferometry (BLI) on an Octet RED 96e instrument. Briefly, cell culture supernatants were diluted based on qualitative expression level of the variant determined by visual examination of SDS-PAGE gels, 5 μL of cell culture supernatant was diluted into 195 μL of 1×PBST, pH 7.4 for high expressors, 25 μL of cell culture supernatant was diluted into 175 μL of 1×PBST, pH 7.4 for medium expressors and 100 μL of cell culture supernatant was diluted into 100 μL of 1×PBST, pH 7.4 for low expressors for loading onto the sensor tips. The resulting diluted supernatants were then captured on an anti-human Fc sensor (Forte Bio). A baseline was established using 1×PBST (50 mM Potassium Phosphate Buffer+150 mM NaCl+0.05% Tween 20) pH 7.4, and the sensor was associated with 50 nM of TROP2 (Human TROP2 Protein, His Tag, Acro Biosystems) in 1×PBST pH 7.4 for 120 sec to generate an association curve. In the dissociation phase, the antibody-antigen complex on the sensor was exposed to 1×PBST pH 7.4 or pH 5.4, for 300 sec. Association and dissociation phase curves were examined for the starting ABPC antibody (with no substitutions) and each corresponding antibody variant at pH 5.4 and pH 7.4 to inform on two criteria: a) enhanced dissociation (i.e., higher koff values) at pH 5.4 due to histidine or alanine substitution compared to the starting ABPC, (with no substitutions), and b) reduced dissociation at pH 7.4 (i.e., lower koff values) compared to pH 5.4 in the antibody variant itself and with the starting ABPC (with no substitutions). […] It was also noted that while some mutations obliterated TROP2 binding, others were tolerated with little or n change in TROP2 binding kinetics.
row,binding result,Binder
1,binds,B17

# Target: T2, Human TROP2 Protein, His Tag (Acro …)
# Test: Octet BLI: IgG supernatant on anti-human Fc sensor, 50 nM TROP2-His at pH 7.4; Octet Binding Result 3=No binding
# Method: as §1
row,binding result,Binder
1,no binding (tested: 50 nM),B18
2,no binding (tested: 50 nM),B19
3,no binding (tested: 50 nM),B20
4,no binding (tested: 50 nM),B21
5,no binding (tested: 50 nM),B22

# Target: T2, Human TROP2 Protein, His Tag (Acro …)
# Test: Octet BLI: IgG supernatant on anti-human Fc sensor, 50 nM TROP2-His at pH 7.4, dissociation at pH 7.4 or 5.4; Octet Binding Result 1=pH dependent
# Method: as §1
row,binding result,Binder
1,binds,B23
2,binds,B24
